Experimental data reported in patent publication US20040197818A1 (UNIVERSITY OF UTAH RESEARCH FOUNDATION, published 2004).
Positions count from the first letter of the chain named. Names and notes keep the numbering of the source.

B1: wild type human MiRP1 (other)
chain: MSTLSNFTQTLEDVFRRIFITYMDNWRQNTTAEQEALQAKVDAENFYYVILYLMVMIGMFSFIIVAILVSTVKSKRREHSNDPYHQYIVEDWQEKYKSQILNLEESKATIHENIGAAGFKMSP
B2: T8A-hMiRP1 (other)
chain: B1 chain with T8A
B3: M54T-hMiRP1 (other)
chain: B1 chain with M54T
B4: Q9E-hMiRP1 (other)
chain: B1 chain with Q9E
B5: rMiRP1 (other)
chain: MTTLANLTQTLEDAFKKVFITYMDSWRRNTTAEQQALQARVDAENFYYVILYLMVMIGMFAFIVVAILVSTVKSKRREHSQDPYHQYIVEDWQQKYRSQILHLEDSKATIHENLGATGFTVSP
modifications: 35S-methionine label in the in vitro binding assay

How the values were obtained:
HERG [1] = target: T1, HERG (human, UniProt Q12809 1-1159); assay: cell-based or functional assay
HERG [2] = target: T1, HERG; assay: cell-based or functional assay; remark: listed apart in the source

T1 sequence (Q12809 whole entry): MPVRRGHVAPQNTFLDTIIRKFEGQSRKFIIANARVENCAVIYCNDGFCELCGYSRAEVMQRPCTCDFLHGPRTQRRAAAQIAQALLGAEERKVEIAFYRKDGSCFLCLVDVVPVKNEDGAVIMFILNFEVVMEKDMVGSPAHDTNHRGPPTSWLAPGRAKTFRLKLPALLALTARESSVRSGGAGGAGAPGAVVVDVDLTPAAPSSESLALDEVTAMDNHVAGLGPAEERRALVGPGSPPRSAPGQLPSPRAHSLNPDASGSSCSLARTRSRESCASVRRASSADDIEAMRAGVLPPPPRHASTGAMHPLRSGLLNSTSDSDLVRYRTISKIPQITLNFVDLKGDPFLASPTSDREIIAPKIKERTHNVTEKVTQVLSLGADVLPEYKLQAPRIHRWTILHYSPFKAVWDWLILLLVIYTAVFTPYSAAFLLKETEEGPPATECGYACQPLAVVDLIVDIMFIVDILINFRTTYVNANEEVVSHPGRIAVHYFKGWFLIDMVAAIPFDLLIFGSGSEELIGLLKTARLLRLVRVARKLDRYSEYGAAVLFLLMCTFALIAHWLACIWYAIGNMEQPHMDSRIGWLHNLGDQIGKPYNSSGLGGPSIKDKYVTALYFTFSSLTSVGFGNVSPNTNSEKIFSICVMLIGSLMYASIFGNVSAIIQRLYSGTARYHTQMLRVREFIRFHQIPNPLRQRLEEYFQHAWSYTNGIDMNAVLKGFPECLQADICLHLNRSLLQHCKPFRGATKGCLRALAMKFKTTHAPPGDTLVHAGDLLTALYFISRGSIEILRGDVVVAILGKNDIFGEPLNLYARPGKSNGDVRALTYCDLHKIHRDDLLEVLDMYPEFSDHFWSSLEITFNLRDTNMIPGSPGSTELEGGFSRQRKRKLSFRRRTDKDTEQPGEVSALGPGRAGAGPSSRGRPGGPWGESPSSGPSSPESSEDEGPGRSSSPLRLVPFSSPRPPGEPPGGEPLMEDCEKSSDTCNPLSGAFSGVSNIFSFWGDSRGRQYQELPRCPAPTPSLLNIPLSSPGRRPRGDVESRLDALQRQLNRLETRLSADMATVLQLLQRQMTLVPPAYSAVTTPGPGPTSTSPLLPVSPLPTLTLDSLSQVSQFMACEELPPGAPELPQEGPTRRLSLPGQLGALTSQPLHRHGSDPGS

Binder | deactivation rate at -120 mV, CHO cells (HERG [1]) [fold] | activation V1/2 (HERG [2]) [mV] | deactivation fast time constant (HERG [2]) | deactivation ratio If/(Is + If) (HERG [2]) | deactivation slow time constant (HERG [2]) | deactivation rate against channels with wild type hMiRP1 (HERG [1]) [fold] | deactivation rate, oocytes (HERG [1]) [fold] | deactivation rate, plasma-like ionic conditions, whole-cell (HERG [1]) [fold]
B1 | ~3 | -21 | 80 | 0.82 | 483 | – | – | –
B2 | – | -29 | 100 | 0.83 | 590 | – | – | –
B3 | – | -21 | 37 | 0.81 | 266 | ~3 | – | –
B4 | – | -12 | 100 | 0.8 | 750 | – | – | –
B5 | – | – | – | – | – | – | 7 | ~2
